Consider two molecules from patent US20260217795A1 (NANJING GENSCRIPT BIOTECH, published 2026).

What all share (assay): indirect ELISA, VLP coated at 1 ug/mL, antibody in 3-fold dilutions from 1 ug/mL
Experiment [1] addresses T1, recombinant rh.1-type AAV virus-like particles (AAVrh.1 VLP) (adeno-associated virus rh.1 (isolated …)).
T1 construct: The immunogen; VLP self-assembled from VP1, VP2 and VP3 expressed in 293T cells; coated on ELISA plates; also called rh.1-serotype AAV
T1 chain 1: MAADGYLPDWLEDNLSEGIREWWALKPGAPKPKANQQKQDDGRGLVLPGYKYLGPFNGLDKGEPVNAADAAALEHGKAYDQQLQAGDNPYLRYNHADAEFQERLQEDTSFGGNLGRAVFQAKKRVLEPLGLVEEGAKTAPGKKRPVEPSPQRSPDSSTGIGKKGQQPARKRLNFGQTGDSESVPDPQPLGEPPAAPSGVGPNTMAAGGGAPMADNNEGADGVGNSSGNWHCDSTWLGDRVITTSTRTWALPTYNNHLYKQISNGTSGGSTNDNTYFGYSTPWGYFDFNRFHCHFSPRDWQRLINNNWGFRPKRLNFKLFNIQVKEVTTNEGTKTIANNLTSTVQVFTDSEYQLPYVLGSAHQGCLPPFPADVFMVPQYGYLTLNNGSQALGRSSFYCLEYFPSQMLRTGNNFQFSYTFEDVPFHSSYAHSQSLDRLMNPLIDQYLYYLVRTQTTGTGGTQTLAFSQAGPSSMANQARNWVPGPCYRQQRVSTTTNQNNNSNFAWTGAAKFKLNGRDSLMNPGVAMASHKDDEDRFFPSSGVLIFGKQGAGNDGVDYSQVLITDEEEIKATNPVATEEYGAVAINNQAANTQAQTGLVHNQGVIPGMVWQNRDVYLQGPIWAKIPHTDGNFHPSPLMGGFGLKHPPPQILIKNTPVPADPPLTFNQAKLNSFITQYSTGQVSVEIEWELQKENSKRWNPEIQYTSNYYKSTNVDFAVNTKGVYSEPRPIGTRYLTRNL
T1 chain 2: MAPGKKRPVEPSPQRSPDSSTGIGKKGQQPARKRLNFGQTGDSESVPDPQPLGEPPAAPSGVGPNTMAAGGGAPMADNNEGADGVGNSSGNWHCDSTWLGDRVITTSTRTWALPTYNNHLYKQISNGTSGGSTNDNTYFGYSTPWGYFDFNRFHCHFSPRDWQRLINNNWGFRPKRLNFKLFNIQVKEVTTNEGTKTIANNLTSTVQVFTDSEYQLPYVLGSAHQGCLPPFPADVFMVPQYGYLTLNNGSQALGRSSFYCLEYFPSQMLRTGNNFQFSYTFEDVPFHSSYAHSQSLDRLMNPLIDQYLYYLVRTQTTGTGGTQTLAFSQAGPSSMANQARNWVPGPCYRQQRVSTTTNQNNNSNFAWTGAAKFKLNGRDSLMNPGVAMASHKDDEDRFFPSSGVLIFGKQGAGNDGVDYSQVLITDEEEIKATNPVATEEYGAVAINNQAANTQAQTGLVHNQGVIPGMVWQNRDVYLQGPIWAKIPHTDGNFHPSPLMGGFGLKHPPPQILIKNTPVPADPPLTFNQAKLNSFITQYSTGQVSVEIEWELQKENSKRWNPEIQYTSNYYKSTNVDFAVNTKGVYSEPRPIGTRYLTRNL
T1 chain 3: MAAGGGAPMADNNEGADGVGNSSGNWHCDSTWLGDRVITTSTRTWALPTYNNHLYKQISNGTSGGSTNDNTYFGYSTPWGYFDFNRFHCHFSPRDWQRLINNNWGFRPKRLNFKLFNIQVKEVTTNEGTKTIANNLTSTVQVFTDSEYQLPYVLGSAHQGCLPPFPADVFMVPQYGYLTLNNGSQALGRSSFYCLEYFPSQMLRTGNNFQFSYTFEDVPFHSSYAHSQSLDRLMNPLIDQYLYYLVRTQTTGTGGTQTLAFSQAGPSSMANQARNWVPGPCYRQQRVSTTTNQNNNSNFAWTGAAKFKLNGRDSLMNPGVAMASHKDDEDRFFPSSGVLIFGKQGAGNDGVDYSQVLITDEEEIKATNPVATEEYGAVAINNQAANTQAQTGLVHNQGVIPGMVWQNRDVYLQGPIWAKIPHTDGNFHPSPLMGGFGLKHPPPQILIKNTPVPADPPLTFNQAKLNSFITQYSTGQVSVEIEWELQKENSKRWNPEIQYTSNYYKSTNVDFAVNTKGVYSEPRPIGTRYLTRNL

Experiment [2] has as its target T2, AAV1 virus-like particle (VLP) (adeno-associated virus 1).
T2 construct: VLP self-assembled from VP1, VP2 and VP3 expressed in 293T cells; coated on ELISA plates; also called VLP of AAV1

In experiment [3] the target is T3, AAV2 virus-like particle (VLP) (adeno-associated virus 2, UniProt P03135 1-735; P03135 1-598; P03135 1-533).
T3 construct: VLP self-assembled from VP1, VP2 and VP3 expressed in 293T cells; coated on ELISA plates; also called VLP of AAV2

For experiment [4], the target named is T4, AAV6 virus-like particle (VLP) (adeno-associated virus 6).
T4 construct: VLP self-assembled from VP1, VP2 and VP3 expressed in 293T cells; coated on ELISA plates; also called VLP of AAV6

Experiment [5] deals with T5, AAVDJ virus-like particle (VLP) (adeno-associated virus DJ).
T5 construct: VLP self-assembled from VP1, VP2 and VP3 expressed in 293T cells; coated on ELISA plates; also called VLP of AAVDJ

Experiment [6] concerns the target T6, AAV5 virus-like particle (VLP) (adeno-associated virus 5).
T6 construct: VLP self-assembled from VP1, VP2 and VP3 expressed in 293T cells; coated on ELISA plates; also called VLP of AAV5

Experiment [7] concerns the target T7, AAV8 virus-like particle (VLP) (adeno-associated virus 8).
T7 construct: VLP self-assembled from VP1, VP2 and VP3 expressed in 293T cells; coated on ELISA plates; also called VLP of AAV8
T7 VP1: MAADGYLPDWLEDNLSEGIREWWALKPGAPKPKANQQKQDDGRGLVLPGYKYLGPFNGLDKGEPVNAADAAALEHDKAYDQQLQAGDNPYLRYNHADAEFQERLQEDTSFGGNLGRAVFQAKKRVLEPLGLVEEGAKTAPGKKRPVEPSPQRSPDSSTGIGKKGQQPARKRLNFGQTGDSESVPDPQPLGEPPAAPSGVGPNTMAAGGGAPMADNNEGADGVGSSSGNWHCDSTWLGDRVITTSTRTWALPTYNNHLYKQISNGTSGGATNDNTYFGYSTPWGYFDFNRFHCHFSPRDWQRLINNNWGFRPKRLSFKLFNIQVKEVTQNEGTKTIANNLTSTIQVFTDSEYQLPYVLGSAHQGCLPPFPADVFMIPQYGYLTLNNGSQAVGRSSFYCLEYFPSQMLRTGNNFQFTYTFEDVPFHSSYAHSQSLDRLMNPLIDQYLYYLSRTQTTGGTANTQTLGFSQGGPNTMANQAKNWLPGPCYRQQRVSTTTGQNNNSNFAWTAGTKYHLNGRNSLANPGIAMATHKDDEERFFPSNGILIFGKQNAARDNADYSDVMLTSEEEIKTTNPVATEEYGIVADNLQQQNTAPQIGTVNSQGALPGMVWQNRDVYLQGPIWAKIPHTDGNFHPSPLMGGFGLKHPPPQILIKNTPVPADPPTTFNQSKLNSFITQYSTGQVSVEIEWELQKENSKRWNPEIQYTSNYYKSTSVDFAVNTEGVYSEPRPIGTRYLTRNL

Experiment [8] addresses T8, AAV9 virus-like particle (VLP) (adeno-associated virus 9).
T8 construct: VLP self-assembled from VP1, VP2 and VP3 expressed in 293T cells; coated on ELISA plates; also called VLP of AAV9

B1: 24F7-1 monoclonal antibody (antibody, V domains shown)
VH: QSLRESEGGLFKPADTLTLTCTVSGFSITAYNVGWVRQAPGKGLEWIGVIDISGATFYATWAKSRSTITRDTSLNTVTLKMTSLTAADTATYFCTRDPAFIWGPGTLVTVSS
VL: DVVMTQTPASVEAAVGGTVTIKCQASQSVSSYLAWYQQKPGQPPKLLIYRASTLASGVPSRFKGSGSGTEFTLTISDLECADAATYYCQSYVYSNVLTYFNAFGGGTGVVVK
notes: Rabbit monoclonal antibody, made recombinantly in ExpiCHO-S cells, purified on protein A as IgG and detected with anti-rabbit IgG (Fc-specific); also called clone 24F7-1
As a reminder, the EC50 is the concentration needed to bring the measured effect to its halfway point. On to B1, for which the 50% effective concentration (EC50) was 0.93 ng/mL in experiment [1]; 0.79 ng/mL in experiment [2]; 0.51 ng/mL in experiment [3]; 0.61 ng/mL in experiment [4]; 0.5 ng/mL in experiment [5].

B2: 5G4-1 monoclonal antibody (antibody, V domains shown)
VH: QSVKESEGGLFKPADTLSLTCTVSGFSLNNNDMSWVRQAPGNGLEYIGVMSSGGRLYAATWAKSRFTITRNTNLGTVTLKLTSLTAADTATYFCARGSPSSNRGIDIWGPGTLVTVSS
VL: LTQTPSSVSAPVGGTVSINCQSDKSVYADNYLSWYQQTPGQPPKLLIYKASTLASGIPSRFKGSGSGTQFTLAISDVQCDDAATYYCAGGYSGNSDNGFGGGTEVVVR
notes: Rabbit monoclonal antibody, made recombinantly in ExpiCHO-S cells, purified on protein A as IgG and detected with anti-rabbit IgG (Fc-specific); also called clone 5G4-1
Take B2: the EC50 in experiment [1] is 0.51 ng/mL; in experiment [2] it was 1.03 ng/mL; in experiment [3], 0.94 ng/mL; in experiment [6], 1.16 ng/mL; in experiment [4] it was 0.64 ng/mL; in experiment [7] it was 1 ng/mL. Also, the EC50 in experiment [8] came to 0.64 ng/mL; in experiment [5], 1.12 ng/mL.
